From patent US7943731 (MIT, dated 2011)

Target: the molecule itself
Assay: sedimentation equilibrium, self-association in solution without DNA
Protocol: Sedimentation Equilibrium. Peptide samples at three concentrations, ranging from ≈10 µM to ≈100 µM, were centrifuged to equilibrium in a Beckman Optima XL-A at 20,000 and 30,000 rpm at 4° C. in a buffer containing 15 mM Tris, pH 7.8, 150 mM KCl, 5 mM MgCl_2, 20 µM ZnSO_4, and 0.2 mM DTT. Solvent density and partial specific volumes of peptides were calculate at described (13). The sedimentation data were analyzed by methods described in refs. 14 and 15, using the program NONLIN (16).

B1: Zif12 peptide (amino acids 2-59 of Zif268, Gly-Ser dipeptide at the N terminus) (other)
chain: not shown
notes: range 2-59; No N-terminal peptide extension; also called isolated Zif12 domain; Zif1-Zif2 construct
Question: Does B1 bind?
Answer: Result: no binding (tested: ≈100 µM)
